{"source": "patent US20250236653A1", "about": "(ONKO INNATE, published 2025)", "key": {"human IL-12 receptor": {"target": "human IL-12 receptor (human, UniProt P42701 24-662; Q99665 24-862)", "sequence (Q99665 24-862 limits assumed, chain 2 of 2, other chains not shown)": "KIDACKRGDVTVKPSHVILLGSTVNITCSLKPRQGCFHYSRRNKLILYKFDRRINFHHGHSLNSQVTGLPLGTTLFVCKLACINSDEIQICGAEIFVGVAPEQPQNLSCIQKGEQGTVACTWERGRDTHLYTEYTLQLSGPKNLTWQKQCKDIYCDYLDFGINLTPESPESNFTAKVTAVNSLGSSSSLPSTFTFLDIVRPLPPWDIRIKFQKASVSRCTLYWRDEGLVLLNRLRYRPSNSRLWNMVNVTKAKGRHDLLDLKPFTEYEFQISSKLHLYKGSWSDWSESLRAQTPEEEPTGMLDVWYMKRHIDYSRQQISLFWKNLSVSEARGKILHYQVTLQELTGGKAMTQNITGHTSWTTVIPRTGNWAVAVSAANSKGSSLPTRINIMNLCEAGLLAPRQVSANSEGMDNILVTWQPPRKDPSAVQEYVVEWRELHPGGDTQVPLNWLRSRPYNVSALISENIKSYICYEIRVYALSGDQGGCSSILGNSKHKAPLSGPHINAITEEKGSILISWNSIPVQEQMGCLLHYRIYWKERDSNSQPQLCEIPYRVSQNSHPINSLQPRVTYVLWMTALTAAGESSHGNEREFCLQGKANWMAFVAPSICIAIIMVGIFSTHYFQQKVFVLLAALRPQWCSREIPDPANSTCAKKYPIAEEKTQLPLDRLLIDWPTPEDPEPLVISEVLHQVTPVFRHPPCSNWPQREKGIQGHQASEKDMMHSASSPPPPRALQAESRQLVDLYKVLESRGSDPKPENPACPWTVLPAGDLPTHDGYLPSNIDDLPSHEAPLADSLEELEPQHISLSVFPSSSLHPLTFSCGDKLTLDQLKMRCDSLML", "test": "cell-based or functional assay"}, "human OX40": {"target": "T1, human OX40 (human, UniProt P43489 29-277)", "T1 construct": "whole, on cells; also called hOX40", "T1 sequence (looked up)": "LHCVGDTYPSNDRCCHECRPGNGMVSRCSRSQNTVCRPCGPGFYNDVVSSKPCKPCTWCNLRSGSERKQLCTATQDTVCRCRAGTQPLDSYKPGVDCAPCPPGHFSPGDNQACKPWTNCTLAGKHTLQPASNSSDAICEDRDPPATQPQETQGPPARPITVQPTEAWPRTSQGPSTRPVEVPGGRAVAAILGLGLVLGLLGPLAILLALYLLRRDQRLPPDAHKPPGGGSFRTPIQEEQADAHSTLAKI", "test": "flow cytometry on hOX40-Jurkat-NF-κB cells", "experimental": "Stained hOX40-Jurkat-NF-κB and cOX40-Jurkat-NF-κB cells were analyzed by flow cytometry using a CytoFLEX (Beckman Coulter), the results of which are depicted in FIGS. 78 and 79, respectively, and summarized in FIG. 80.\nBinding of each of the sequence optimized IL-12 ABD fusion proteins to hOX40-Jurkat-NF-κB cells was performed as described in Example 16, the results of which are depicted in FIG. 87 and summarized in FIG. 88."}}, "data": [{"binder": "IL-12 Fc mut9 (Fc fusion) RNLPVATPDPGMFPCLHHSQNLLRAVSNMLQKARQTLEFPPCTSEEIDHEDITKDKTSTVEACLPLELTKNESCLNSRETSFITNGSCLASRKTSFMMALCLSSIYEDLKMYQVEFKTMNAKLLMDPKRQIFLDQNMLAVIDELMQALNFNSETVPQKSSLEEPDFYATKIKLCILLHAFRIRAVTIDRVMSYLNAS", "values": [{"measurement": "SEAP of CCR8-HEK-Blue IL-12 reporter cells (OD 650 nm), EC50", "setting": "human IL-12 receptor", "value": 12.5, "unit": "nM"}]}, {"binder": "mono-mut23-20E5_V5 (Fc fusion) IWELKKDVYVVELDWYPDAPGEMVVLTCDTPEEDGITWTLDQSSEVLGSGKTLTIQVKEFGDAGQYTCHKGGEVLSHSLLLLHKKEDGIWSTDILKDQKEPKNKTFLRCEAKNYSGRFTCWWLTTISTDLTFSVKSSRGSSDPQGVTCGAATLSAERVRGDNKEYEYSVECQEDSACPAAEESLPIEVMVDAVHKLKYENYTSSFFIRDIIKPDPPKNLQLKPLKNSRQVEVSWEYPDTWSTPHSYFSLTFSVQVQGKSKREKKDRVFTDKTSATVICRKNASISVRAQDRYYSSSWSEWASVPCSGGGGSGGGGSGGGGSGGGGSGGGGSRNLPVATPDPGMFPCLHHSQNLLRAVSNMLQKARQTLEFSPCTSEEIDHEDITKDKTSTVEACLPLELTKNESCLNSRETSFITNGSCLASRKTSFMMALCLSSIYEDLKMYQVEFKTMNAKLLMDPKRQIFLDQNMLAVIDELMQALNFNSETVPQKSSLEEPDFYKTAIKLCILLHAFRIRAVTIDRVMSYLNASGGGGSGGGGSEPKSSDKTHTCPPCPAPEFEGGPSVFLFPPKPKDTLMISRTPEVTCVVVDVSHEDPEVKFNWYVDGVEVHNAKTKPREEQYNSTYRVVSVLTVLHQDWLNGKEYKCKVSNKALPASIEKTISKAKGQPREPQVCTLPPSRDELTKNQVSLSCAVKGFYPSDIAVEWESNGQPENNYKTTPPVLDSDGSFFLVSKLTVDKSRWQQGNVFSCSVMHEALHNHYTQKSLSLSPG heavy: QVQLVQSGAEVKKPGASVKVSCKASGYTFTSYVMHWVRQAPGQRLEWIGYINPYNAGTKYNEKFKGRATLTSDKSASTAYMELSSLRSEDTAVYYCANYYGSSLSMDYWGQGTLVTVSSASTKGPSVFPLAPSSKSTSGGTAALGCLVKDYFPEPVTVSWNSGALTSGVHTFPAVLQSSGLYSLSSVVTVPSSSLGTQTYICNVNHKPSNTKVDKKVEPKSCDKTHTCPPCPAPEFEGGPSVFLFPPKPKDTLMISRTPEVTCVVVDVSHEDPEVKFNWYVDGVEVHNAKTKPREEQYNSTYRVVSVLTVLHQDWLNGKEYKCKVSNKALPASIEKTISKAKGQPREPQVYTLPPCRDELTKNQVSLWCLVKGFYPSDIAVEWESNGQPENNYKTTPPVLDSDGSFFLYSKLTVDKSRWQQGNVFSCSVMHEALHNHYTQKSLSLSPG light: not shown", "values": [{"measurement": "binding result", "setting": "human OX40", "value": "binds"}]}, {"binder": "commercially available recombinant mouse IL-12 (rmIL-12, BioLegend) (ligand) chain 1: RVIPVSGPARCLSQSRNLLKTTDDMVKTAREKLKHYSCTAEDIDHEDITRDQTSTLKTCLPLELHKNESCLATRETSSTTRGSCLPPQKTSLMMTLCLGSIYEDLKMYQTEFQAINAALQNHNHQQIILDKGMLVAIDELMQSLNHNGETLRQKPPVGEADPYRVKMKLCILLHAFSTRVVTINRVMGYLSSA chain 2: MWELEKDVYVVEVDWTPDAPGETVNLTCDTPEEDDITWTSDQRHGVIGSGKTLTITVKEFLDAGQYTCHKGGETLSHSHLLLHKKENGIWSTEILKNFKNKTFLKCEAPNYSGRFTCSWLVQRNMDLKFNIKSSSSSPDSRAVTCGMASLSAEKVTLDQRDYEKYSVSCQEDVTCPTAEETLPIELALEARQQNKYENYSTSFFIRDIIKPDPPKNLQMKPLKNSQVEVSWEYPDSWSTPHSYFSLKFFVRIQRKKEKMKETEEGCNQKGAFLVEKTSTEVQCKGGNVCVQAQDRYYNSSCSKWACVPCRVRS", "values": [{"measurement": "IFNγ in the supernatant of activated/expanded human T cells (AlphaLISA), EC50", "setting": "human IL-12 receptor", "value": 19.3, "unit": "pM"}]}, {"binder": "commercially available recombinant IL-12 (rIL-12, Miltenyi) (ligand) chain 1: RNLPVATPDPGMFPCLHHSQNLLRAVSNMLQKARQTLEFYPCTSEEIDHEDITKDKTSTVEACLPLELTKNESCLNSRETSFITNGSCLASRKTSFMMALCLSSIYEDLKMYQVEFKTMNAKLLMDPKRQIFLDQNMLAVIDELMQALNFNSETVPQKSSLEEPDFYKTKIKLCILLHAFRIRAVTIDRVMSYLNAS chain 2: IWELKKDVYVVELDWYPDAPGEMVVLTCDTPEEDGITWTLDQSSEVLGSGKTLTIQVKEFGDAGQYTCHKGGEVLSHSLLLLHKKEDGIWSTDILKDQKEPKNKTFLRCEAKNYSGRFTCWWLTTISTDLTFSVKSSRGSSDPQGVTCGAATLSAERVRGDNKEYEYSVECQEDSACPAAEESLPIEVMVDAVHKLKYENYTSSFFIRDIIKPDPPKNLQLKPLKNSRQVEVSWEYPDTWSTPHSYFSLTFCVQVQGKSKREKKDRVFTDKTSATVICRKNASISVRAQDRYYSSSWSEWASVPCS", "values": [{"measurement": "SEAP of CCR8-HEK-Blue IL-12 reporter cells (OD 650 nm), EC50", "setting": "human IL-12 receptor", "value": 0.17, "unit": "nM"}]}, {"binder": "mono-mut23-12H3_V5 (Fc fusion) IWELKKDVYVVELDWYPDAPGEMVVLTCDTPEEDGITWTLDQSSEVLGSGKTLTIQVKEFGDAGQYTCHKGGEVLSHSLLLLHKKEDGIWSTDILKDQKEPKNKTFLRCEAKNYSGRFTCWWLTTISTDLTFSVKSSRGSSDPQGVTCGAATLSAERVRGDNKEYEYSVECQEDSACPAAEESLPIEVMVDAVHKLKYENYTSSFFIRDIIKPDPPKNLQLKPLKNSRQVEVSWEYPDTWSTPHSYFSLTFSVQVQGKSKREKKDRVFTDKTSATVICRKNASISVRAQDRYYSSSWSEWASVPCSGGGGSGGGGSGGGGSGGGGSGGGGSRNLPVATPDPGMFPCLHHSQNLLRAVSNMLQKARQTLEFSPCTSEEIDHEDITKDKTSTVEACLPLELTKNESCLNSRETSFITNGSCLASRKTSFMMALCLSSIYEDLKMYQVEFKTMNAKLLMDPKRQIFLDQNMLAVIDELMQALNFNSETVPQKSSLEEPDFYKTAIKLCILLHAFRIRAVTIDRVMSYLNASGGGGSGGGGSEPKSSDKTHTCPPCPAPEFEGGPSVFLFPPKPKDTLMISRTPEVTCVVVDVSHEDPEVKFNWYVDGVEVHNAKTKPREEQYNSTYRVVSVLTVLHQDWLNGKEYKCKVSNKALPASIEKTISKAKGQPREPQVCTLPPSRDELTKNQVSLSCAVKGFYPSDIAVEWESNGQPENNYKTTPPVLDSDGSFFLVSKLTVDKSRWQQGNVFSCSVMHEALHNHYTQKSLSLSPG heavy: QVQLVQSGAEVKKPGSSVKVSCKASGYTFKDYTMHWVRQAPGQGLEWIGGIYPNNAGSTYNQNFKDRVTLTADKSTSTAYMELSSLRSEDTAVYYCARMGYHGPHLDFDVWGQGTTVTVSSASTKGPSVFPLAPSSKSTSGGTAALGCLVKDYFPEPVTVSWNSGALTSGVHTFPAVLQSSGLYSLSSVVTVPSSSLGTQTYICNVNHKPSNTKVDKKVEPKSCDKTHTCPPCPAPEFEGGPSVFLFPPKPKDTLMISRTPEVTCVVVDVSHEDPEVKFNWYVDGVEVHNAKTKPREEQYNSTYRVVSVLTVLHQDWLNGKEYKCKVSNKALPASIEKTISKAKGQPREPQVYTLPPCRDELTKNQVSLWCLVKGFYPSDIAVEWESNGQPENNYKTTPPVLDSDGSFFLYSKLTVDKSRWQQGNVFSCSVMHEALHNHYTQKSLSLSPG light: DIQMTQSPSSLSASVGDRVTITCKASQDVGAAVAWYQQKPGKAPKLLIYWASTRHTGVPSRFSGSGSGTDFTLTISSLQPEDFATYYCQQYINYPLTFGGGTKVEIKRTVAAPSVFIFPPSDEQLKSGTASVVCLLNNFYPREAKVQWKVDNALQSGNSQESVTEQDSKDSTYSLSSTLTLSKADYEKHKVYACEVTHQGLSSPVTKSFNRGEC", "values": [{"measurement": "EC50", "setting": "human OX40", "value": 113, "unit": "nM"}]}, {"binder": "mono-mut23-12H3_V6 (Fc fusion) IWELKKDVYVVELDWYPDAPGEMVVLTCDTPEEDGITWTLDQSSEVLGSGKTLTIQVKEFGDAGQYTCHKGGEVLSHSLLLLHKKEDGIWSTDILKDQKEPKNKTFLRCEAKNYSGRFTCWWLTTISTDLTFSVKSSRGSSDPQGVTCGAATLSAERVRGDNKEYEYSVECQEDSACPAAEESLPIEVMVDAVHKLKYENYTSSFFIRDIIKPDPPKNLQLKPLKNSRQVEVSWEYPDTWSTPHSYFSLTFSVQVQGKSKREKKDRVFTDKTSATVICRKNASISVRAQDRYYSSSWSEWASVPCSGGGGSGGGGSGGGGSGGGGSGGGGSRNLPVATPDPGMFPCLHHSQNLLRAVSNMLQKARQTLEFSPCTSEEIDHEDITKDKTSTVEACLPLELTKNESCLNSRETSFITNGSCLASRKTSFMMALCLSSIYEDLKMYQVEFKTMNAKLLMDPKRQIFLDQNMLAVIDELMQALNFNSETVPQKSSLEEPDFYKTAIKLCILLHAFRIRAVTIDRVMSYLNASGGGGSGGGGSEPKSSDKTHTCPPCPAPEFEGGPSVFLFPPKPKDTLMISRTPEVTCVVVDVSHEDPEVKFNWYVDGVEVHNAKTKPREEQYNSTYRVVSVLTVLHQDWLNGKEYKCKVSNKALPASIEKTISKAKGQPREPQVCTLPPSRDELTKNQVSLSCAVKGFYPSDIAVEWESNGQPENNYKTTPPVLDSDGSFFLVSKLTVDKSRWQQGNVFSCSVMHEALHNHYTQKSLSLSPG heavy: QVQLVQSGAEVKKPGSSVKVSCKASGYTFKDYTMHWVRQAPGQGLEWIGGIYPNNGGSTYNQNFKDRVTLTADKSTSTAYMELSSLRSEDTAVYYCARLGYHGPHLDFDVWGQGTTVTVSSASTKGPSVFPLAPSSKSTSGGTAALGCLVKDYFPEPVTVSWNSGALTSGVHTFPAVLQSSGLYSLSSVVTVPSSSLGTQTYICNVNHKPSNTKVDKKVEPKSCDKTHTCPPCPAPEFEGGPSVFLFPPKPKDTLMISRTPEVTCVVVDVSHEDPEVKFNWYVDGVEVHNAKTKPREEQYNSTYRVVSVLTVLHQDWLNGKEYKCKVSNKALPASIEKTISKAKGQPREPQVYTLPPCRDELTKNQVSLWCLVKGFYPSDIAVEWESNGQPENNYKTTPPVLDSDGSFFLYSKLTVDKSRWQQGNVFSCSVMHEALHNHYTQKSLSLSPG light: DIQMTQSPSSLSASVGDRVTITCKASQDVGAAVAWYQQKPGKAPKLLIYWASTRHTGVPSRFSGSGSGTDFTLTISSLQPEDFATYYCQQYINYPLTFGGGTKVEIKRTVAAPSVFIFPPSDEQLKSGTASVVCLLNNFYPREAKVQWKVDNALQSGNSQESVTEQDSKDSTYSLSSTLTLSKADYEKHKVYACEVTHQGLSSPVTKSFNRGEC", "values": [{"measurement": "EC50", "setting": "human OX40", "value": 645, "unit": "nM"}]}]}
